The values that follow come from PMC5992339, “The Structure of an Infectious Human Polyomavirus and Its Interactions with Cellular Receptors” (Structure(London, England:1993), 2018).

This data set deals with the molecule itself. The data set is described as follows: cryo-EM structure; purified native BKV virions (0.25 mg/ml) adsorbed on carbon-coated lacey grids in buffer A without Triton X-100; icosahedral reconstructions: unliganded 3.8 A, with 20 mM GT1b oligosaccharide 3.4 A, with heparin 10 mg/ml 3.6 A, with 5 mM DTT (reduced) 6.5 A.

B1: BK polyomavirus major capsid protein VP1 (natural protein)
chain: MAPTKRKGECPGAAPKKPKEPVQVPKLLIKGGVEVLEVKTGVDAITEVECFLNPEMGDPDENLRGFSLKLSAENDFSSDSPERKMLPCYSTARIPLPNLNEDLTCGNLLMWEAVTVQTEVIGITSMLNLHAGSQKVHEHGGGKPIQGSNFHFFAVGGEPLEMQGVLMNYRSKYPDGTITPKNPTAQSQVMNTDHKAYLDKNNAYPVECWVPDPSRNENARYFGTFTGGENVPPVLHVTNTATTVLLDEQGVGPLCKADSLYVSAADICGLFTNSSGTQQWRGLARYFKIRLRKRSVKNPYPISFLLSDLINRRTQRVDGQPMYGMESQVEEVRVFDGTERLPGDPDMIRYIDKQGQLQTKML
notes: Major capsid protein VP1 of BK polyomavirus, Dunlop strain, as it stands in the native virion made from the genome of plasmid pGEM7-Dunlop; the model is built up to Lys359 in chain 6, and the first 13 residues of chain 2 are not resolved; Protein of the native virion, with no tags and no truncation; The capsid is built from 72 pentons of VP1 (T = 7d); also called BKV VP1; chains 1-6 (the six …)
Turning to B1, the binding result is “binds”.
